The target in one assay is T1, B-cat-Halo (UniProt P35222 1-781).
T1 construct: Expressed by transfection in HEK293 cells for the NanoBRET assay; also called beta-catenin HaloTag NanoBRET construct; not shown: HaloTag
T1 sequence (looked up): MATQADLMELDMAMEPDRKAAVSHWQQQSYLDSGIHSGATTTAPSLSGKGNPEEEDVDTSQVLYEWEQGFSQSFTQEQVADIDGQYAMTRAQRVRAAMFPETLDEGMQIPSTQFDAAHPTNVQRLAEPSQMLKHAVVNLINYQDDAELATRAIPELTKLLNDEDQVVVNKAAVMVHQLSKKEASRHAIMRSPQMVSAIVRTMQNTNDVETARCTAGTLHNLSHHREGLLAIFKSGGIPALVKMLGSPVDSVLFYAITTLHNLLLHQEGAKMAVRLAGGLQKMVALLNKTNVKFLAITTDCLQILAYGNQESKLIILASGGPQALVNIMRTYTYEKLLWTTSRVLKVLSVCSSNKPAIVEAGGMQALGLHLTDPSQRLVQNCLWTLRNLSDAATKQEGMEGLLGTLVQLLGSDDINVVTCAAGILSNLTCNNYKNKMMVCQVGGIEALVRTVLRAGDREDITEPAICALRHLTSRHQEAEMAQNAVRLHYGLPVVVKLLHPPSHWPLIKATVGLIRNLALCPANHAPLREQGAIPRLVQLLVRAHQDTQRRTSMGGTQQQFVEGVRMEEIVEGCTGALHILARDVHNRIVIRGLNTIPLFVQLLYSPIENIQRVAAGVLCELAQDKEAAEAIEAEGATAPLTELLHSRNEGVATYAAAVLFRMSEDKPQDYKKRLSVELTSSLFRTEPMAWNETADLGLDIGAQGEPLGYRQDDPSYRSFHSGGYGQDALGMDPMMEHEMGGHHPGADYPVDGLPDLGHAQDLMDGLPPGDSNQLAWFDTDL
The assay can be described thus: NanoBRET Abs IC50 in HEK293 cells; Bcat-Halo, TCF4-Luc as competitor. On the technique in general: Bioluminescence resonance energy transfer reports proximity on the nanometre scale.

The target of assay [1] is T2, full-length beta-Catenin (Uniprot ID P35222) (Homo sapiens (Human), UniProt P35222 1-781).
T2 construct: also called bCat; B-Catenin
T2 sequence: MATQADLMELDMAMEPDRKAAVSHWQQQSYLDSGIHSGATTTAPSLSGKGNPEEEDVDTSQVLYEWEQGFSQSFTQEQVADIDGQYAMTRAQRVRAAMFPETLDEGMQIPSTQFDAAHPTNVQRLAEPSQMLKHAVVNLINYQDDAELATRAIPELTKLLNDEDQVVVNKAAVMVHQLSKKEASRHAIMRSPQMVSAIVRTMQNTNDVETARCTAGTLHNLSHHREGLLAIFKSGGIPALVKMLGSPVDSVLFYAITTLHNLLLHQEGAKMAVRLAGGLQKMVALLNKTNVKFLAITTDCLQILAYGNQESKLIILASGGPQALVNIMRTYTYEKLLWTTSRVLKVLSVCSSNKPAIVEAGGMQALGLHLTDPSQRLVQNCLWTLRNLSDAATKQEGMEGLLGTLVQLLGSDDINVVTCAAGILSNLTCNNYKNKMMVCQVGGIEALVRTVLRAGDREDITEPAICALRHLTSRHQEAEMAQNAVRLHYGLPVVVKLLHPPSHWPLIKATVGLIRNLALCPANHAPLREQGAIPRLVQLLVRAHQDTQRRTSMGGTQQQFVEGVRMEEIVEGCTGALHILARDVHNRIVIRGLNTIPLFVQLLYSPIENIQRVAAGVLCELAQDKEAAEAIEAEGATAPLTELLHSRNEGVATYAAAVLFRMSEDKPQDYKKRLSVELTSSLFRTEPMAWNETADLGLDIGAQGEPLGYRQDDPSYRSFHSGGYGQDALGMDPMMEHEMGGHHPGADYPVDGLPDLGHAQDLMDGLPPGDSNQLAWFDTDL
Nature of the assay: competition fluorescence polarization; full-length beta-catenin, 5FAM-TCF4(10-53) probe as competitor. The method, then:
The plate was incubated protected from light for 60 minutes at 20° C. prior to read. Reads were performed on a CLARIOstar plate reader (BMG Labtech) in duplicate, and data were fitted to a 1:1 binding model with hill slope using an in-house script. All provided concentrations are final concentrations.
A general note: In fluorescence polarisation assays a small probe gives low polarisation when free and higher when bound to something large.

Usually IC50 stands for the point on the concentration scale where inhibition reaches its midpoint. Low readings indicate greater potency in that assay, high ones weaker potency in that assay.

B1: I-563 (peptide)
peptide: XDLXDDAAFNXFXQ
modifications: not fully specified; N-terminal Ac; C-terminal NH2; non-natural PL3 (1), B5 (4), S8 (11), BztA (13); stapled PL3-B5 and B5-S8 by olefin metathesis
notes: Stapled peptide composition; also called Ac-PL3-Asp-Leu-B5-Asp-Asp-Ala-Ala-Phe-Asn-S8-Phe-BztA-Gln-NH2
Consider B1, for which the values for the IC50 (in the assay with B-cat-Halo; in assay [1]) were 15.7 µM and 0.019 µM, respectively.

B2: I-566 (peptide)
peptide: XDVXDDAAFNXFXQ
modifications: not fully specified; N-terminal Ac; C-terminal NH2; non-natural PL3 (1), B5 (4), S8 (11), BztA (13); stapled PL3-B5 and B5-S8 by olefin metathesis
notes: Stapled peptide composition; also called Ac-PL3-Asp-Val-B5-Asp-Asp-Ala-Ala-Phe-Asn-S8-Phe-BztA-Gln-NH2
Consider B2, for which the IC50 in assay [1] stood at 0.076 µM.

B3: I-567 (peptide)
peptide: XDVXDDAAFNXFXQ
modifications: not fully specified; N-terminal Ac; C-terminal NH2; non-natural PL3 (1), B5 (4), S8 (11), BztA (13); stapled PL3-B5 and B5-S8 by olefin metathesis
notes: as for B2
In turn, B3 returned an IC50 in assay [1] of 0.037 µM. Compared with the last molecule, the IC50 is about 2.1-fold lower.

Values taken from US20240116985A1 (published 2024).
